In PMC4575112, “Serine 363 of a Hydrophobic Region of Archaeal Ribulose 1,5-Bisphosphate Carboxylase/Oxygenase from Archaeoglobus fulgidus and Thermococcus kodakaraensis Affects CO2/O2 Substrate Specificity and Oxygen Sensitivity” (PLoS ONE, 2015):

T1: A. fulgidus RbcL2 (Archaeoglobus fulgidus, UniProt O28635)
T1 construct: gene rbcL; recombinant in E. coli BL-21(DE3) from pET11a, untagged, purified anaerobically to homogeneity; homodimer
T1 sequence (O28635 1-441): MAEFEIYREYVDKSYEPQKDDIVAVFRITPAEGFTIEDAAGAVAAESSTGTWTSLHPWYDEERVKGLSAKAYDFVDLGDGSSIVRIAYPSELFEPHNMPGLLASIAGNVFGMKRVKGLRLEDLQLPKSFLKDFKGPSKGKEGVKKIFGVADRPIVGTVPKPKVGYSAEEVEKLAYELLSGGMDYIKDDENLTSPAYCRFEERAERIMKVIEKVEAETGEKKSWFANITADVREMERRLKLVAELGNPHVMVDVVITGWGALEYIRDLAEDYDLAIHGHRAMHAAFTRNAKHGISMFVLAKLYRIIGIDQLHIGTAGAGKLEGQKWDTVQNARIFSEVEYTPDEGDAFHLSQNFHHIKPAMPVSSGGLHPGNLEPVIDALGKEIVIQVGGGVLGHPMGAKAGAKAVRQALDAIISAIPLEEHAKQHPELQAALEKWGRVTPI


Tests used:
A. fulgidus RbcL2 [1] = molecular target: T1, A. fulgidus RbcL2; assay: radiometric […]-bicarbonate carboxylase assay; assay type: biochemical; conditions: 83°C, pH 8.3, Mg2+, strictly anaerobic; value previously reported by same laboratory (ref 17), run in parallel; read-out: KRuBP ^a /; cited from earlier work
A. fulgidus RbcL2 [2] = molecular target: T2, A. fulgidus RbcL2 (Archaeoglobus fulgidus, UniProt O28635, M295D); assay: radiometric […]-bicarbonate carboxylase assay; assay type: biochemical; conditions: 83°C, pH 8.3, Mg2+, strictly anaerobic; value previously reported by same laboratory (ref 17), run in parallel; read-out: KRuBP ^a /; cited from earlier work
T2 construct: gene rbcL; recombinant in E. coli BL-21(DE3) from pET11a, untagged, purified anaerobically to homogeneity; homodimer
T2 sequence (O28635 whole entry M295D): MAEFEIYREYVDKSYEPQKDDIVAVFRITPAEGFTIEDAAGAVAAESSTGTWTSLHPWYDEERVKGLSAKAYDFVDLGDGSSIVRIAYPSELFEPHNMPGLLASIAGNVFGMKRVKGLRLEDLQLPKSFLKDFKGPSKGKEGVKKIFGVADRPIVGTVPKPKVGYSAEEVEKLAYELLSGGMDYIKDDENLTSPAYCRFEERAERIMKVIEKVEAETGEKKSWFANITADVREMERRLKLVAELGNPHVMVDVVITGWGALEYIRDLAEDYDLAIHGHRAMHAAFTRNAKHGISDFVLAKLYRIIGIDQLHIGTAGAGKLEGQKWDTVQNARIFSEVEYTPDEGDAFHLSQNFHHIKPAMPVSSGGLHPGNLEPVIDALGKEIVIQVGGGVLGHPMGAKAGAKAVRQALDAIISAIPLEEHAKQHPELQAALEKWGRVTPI

purified protein [3] = substrate: O=C(COP(=O)(O)O)[C@H](O)[C@H](O)COP(=O)(O)O; assay: purified protein; assay type: biochemical, Archaeoglobus fulgidus; conditions: 83°C, pH 8.3, Mg2+, strictly anaerobic
purified protein [4] = substrate: O=C(COP(=O)(O)O)[C@H](O)[C@H](O)COP(=O)(O)O; assay: purified protein; assay type: biochemical, Thermococcus kodakarensis; conditions: 83°C, pH 8.3, Mg2+, strictly anaerobic

Molecule | Km (purified protein [3]; kcat determined at 4–6 x KRuBP) [µM] | kcat (purified protein [3]; kcat determined at 4–6 x KRuBP) [s⁻¹] | also measured
O=C(COP(=O)(O)O)[C@H](O)[C@H](O)COP(=O)(O)O [RuBP] | – | – | Km (A. fulgidus RbcL2 [1]): 20 ± 5 µM; Km (A. fulgidus RbcL2 [2]): 21 ± 3 µM
A. fulgidus RbcL2 (Archaeoglobus fulgidus DSM 4304; S363I) (protein, recombinant in E. coli BL-21(DE3) from pET11a, untagged, purified anaerobically to homogeneity; homodimer) MAEFEIYREYVDKSYEPQKDDIVAVFRITPAEGFTIEDAAGAVAAESSTGTWTSLHPWYDEERVKGLSAKAYDFVDLGDGSSIVRIAYPSELFEPHNMPGLLASIAGNVFGMKRVKGLRLEDLQLPKSFLKDFKGPSKGKEGVKKIFGVADRPIVGTVPKPKVGYSAEEVEKLAYELLSGGMDYIKDDENLTSPAYCRFEERAERIMKVIEKVEAETGEKKSWFANITADVREMERRLKLVAELGNPHVMVDVVITGWGALEYIRDLAEDYDLAIHGHRAMHAAFTRNAKHGISMFVLAKLYRIIGIDQLHIGTAGAGKLEGQKWDTVQNARIFSEVEYTPDEGDAFHLSQNFHHIKPAMPVISGGLHPGNLEPVIDALGKEIVIQVGGGVLGHPMGAKAGAKAVRQALDAIISAIPLEEHAKQHPELQAALEKWGRVTPI | – | – | Km (purified protein [3]): 570 ± 94 µM; kcat (purified protein [3]): 9.5 s⁻¹
A. fulgidus RbcL2 (Archaeoglobus fulgidus DSM 4304; S363V) (protein, recombinant in E. coli BL-21(DE3) from pET11a, untagged, purified anaerobically to homogeneity; homodimer) MAEFEIYREYVDKSYEPQKDDIVAVFRITPAEGFTIEDAAGAVAAESSTGTWTSLHPWYDEERVKGLSAKAYDFVDLGDGSSIVRIAYPSELFEPHNMPGLLASIAGNVFGMKRVKGLRLEDLQLPKSFLKDFKGPSKGKEGVKKIFGVADRPIVGTVPKPKVGYSAEEVEKLAYELLSGGMDYIKDDENLTSPAYCRFEERAERIMKVIEKVEAETGEKKSWFANITADVREMERRLKLVAELGNPHVMVDVVITGWGALEYIRDLAEDYDLAIHGHRAMHAAFTRNAKHGISMFVLAKLYRIIGIDQLHIGTAGAGKLEGQKWDTVQNARIFSEVEYTPDEGDAFHLSQNFHHIKPAMPVVSGGLHPGNLEPVIDALGKEIVIQVGGGVLGHPMGAKAGAKAVRQALDAIISAIPLEEHAKQHPELQAALEKWGRVTPI | 118 ± 6 | 12.4 | –
A. fulgidus RbcL2 (Archaeoglobus fulgidus DSM 4304; M295D/S363V) (protein, recombinant in E. coli BL-21(DE3) from pET11a, untagged, purified anaerobically to homogeneity; homodimer) MAEFEIYREYVDKSYEPQKDDIVAVFRITPAEGFTIEDAAGAVAAESSTGTWTSLHPWYDEERVKGLSAKAYDFVDLGDGSSIVRIAYPSELFEPHNMPGLLASIAGNVFGMKRVKGLRLEDLQLPKSFLKDFKGPSKGKEGVKKIFGVADRPIVGTVPKPKVGYSAEEVEKLAYELLSGGMDYIKDDENLTSPAYCRFEERAERIMKVIEKVEAETGEKKSWFANITADVREMERRLKLVAELGNPHVMVDVVITGWGALEYIRDLAEDYDLAIHGHRAMHAAFTRNAKHGISDFVLAKLYRIIGIDQLHIGTAGAGKLEGQKWDTVQNARIFSEVEYTPDEGDAFHLSQNFHHIKPAMPVVSGGLHPGNLEPVIDALGKEIVIQVGGGVLGHPMGAKAGAKAVRQALDAIISAIPLEEHAKQHPELQAALEKWGRVTPI | 1381 ± 88 | 4.3 | –
A. fulgidus RbcL2 (Archaeoglobus fulgidus DSM 4304; M295D/S363I) (protein, recombinant in E. coli BL-21(DE3) from pET11a, untagged, purified anaerobically to homogeneity; homodimer) MAEFEIYREYVDKSYEPQKDDIVAVFRITPAEGFTIEDAAGAVAAESSTGTWTSLHPWYDEERVKGLSAKAYDFVDLGDGSSIVRIAYPSELFEPHNMPGLLASIAGNVFGMKRVKGLRLEDLQLPKSFLKDFKGPSKGKEGVKKIFGVADRPIVGTVPKPKVGYSAEEVEKLAYELLSGGMDYIKDDENLTSPAYCRFEERAERIMKVIEKVEAETGEKKSWFANITADVREMERRLKLVAELGNPHVMVDVVITGWGALEYIRDLAEDYDLAIHGHRAMHAAFTRNAKHGISDFVLAKLYRIIGIDQLHIGTAGAGKLEGQKWDTVQNARIFSEVEYTPDEGDAFHLSQNFHHIKPAMPVISGGLHPGNLEPVIDALGKEIVIQVGGGVLGHPMGAKAGAKAVRQALDAIISAIPLEEHAKQHPELQAALEKWGRVTPI | 1646 ± 310 | 0.7 | –
T. kodakaraensis RbcL (Thermococcus kodakarensis KOD1) (protein, recombinant in E. coli BL-21(DE3) from pET11a, untagged, purified anaerobically to homogeneity; reported decamer) MVEKFDTIYDYYVDKGYEPSKKRDIIAVFRVTPAEGYTIEQAAGAVAAESSTGTWTTLYPWYEQERWADLSAKAYDFHDMGDGSWIVRIAYPFHAFEEANLPGLLASIAGNIFGMKRVKGLRLEDLYFPEKLIREFDGPAFGIEGVRKMLEIKDRPIYGVVPKPKVGYSPEEFEKLAYDLLSNGADYMKDDENLTSPWYNRFEERAEIMAKIIDKVENETGEKKTWFANITADLLEMEQRLEVLADLGLKHAMVDVVITGWGALRYIRDLAADYGLAIHGHRAMHAAFTRNPYHGISMFVLAKLYRLIGIDQLHVGTAGAGKLEGGKWDVIQNARILRESHYKPDENDVFHLEQKFYSIKAAFPTSSGGLHPGNIQPVIEALGTDIVLQLGGGTLGHPDGPAAGARAVRQAIDAIMQGIPLDEYAKTHKELARALEKWGHVTPV | – | – | Km (purified protein [4]): 14 ± 2 µM; kcat (purified protein [4]): 16.6 s⁻¹
